Results taken from patent publication US20090318342A1, “Compounds” (IMPERIAL INNOVATIONS LIMITED, priority 2005, published 2009).
Like-named read-outs stand apart in the source and are kept apart here. One block for each molecule: values may come before it.

Legend:
[1] = target: T1, catalytic domain of stromelysin 1 (MMP-3(ΔC)) (Homo sapiens, UniProt P08254); assay: Enzyme inhibition kinetic study, MMP-3; type: biochemical
T1 construct: the catalytic domains of stromelysin 1 (MMP-3(ΔC)) and membrane-type 1 MMP (MMP-14)
T1 sequence (P08254 100-272 limits assumed, stated change not applied): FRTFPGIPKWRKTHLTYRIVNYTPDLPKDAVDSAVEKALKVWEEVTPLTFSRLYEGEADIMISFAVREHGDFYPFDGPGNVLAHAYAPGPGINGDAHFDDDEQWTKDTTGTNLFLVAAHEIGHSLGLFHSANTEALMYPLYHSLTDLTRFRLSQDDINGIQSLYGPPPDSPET
Protocol: (§1) Enzyme inhibition kinetic studies—Inhibition kinetic studies for MMPs and TACE were carried out as described previously (19, 27) with modifications. Purified N-TIMP-3 and mutants were dialyzed against 20 mM Tris-HCl (pH 7.0), 50 mM NaCl containing 20% glycerol, centrifuged at 14,000 rpm for 10 min to remove any precipitate, and protein concentration was re-measured before conducting inhibition assays. Since NaCl inhibits the activity of the TACE ectodomain in vitro (28), we adjusted the final concentration of NaCl to 1 mM in all assays with TACE. Equal volumes (10% of total assay volume) of diluted solutions of N-TIMP-3 and mutants were added to TACE assays, resulting in a final pH of 8.8.
(§2) (Eq. 1) Tight binding inhibition:
(§3) where v is the experimentally determined reaction velocity, v0 is the uninhibited activity, E is enzyme concentration, I is inhibitor concentration, K is the apparent inhibition constant (Ki^(app)) and h is the Hill coefficient.
(§4) Inhibitory properties of mutants with purified metalloproteinases—The inhibitory activities of wild-type N-TIMP-3 and the two mutants were determined with MMPs representing four different sub-groups: full-length collagenase 1 (MMP-1), gelatinase A (MMP-2), and the catalytic domains of stromelysin 1 (MMP-3(ΔC)) and membrane-type 1 MMP (MMP-14). As previously reported for the corresponding mutants of N-TIMP-1 and TIMP-2 (17, 18), both mutations in N-TIMP-3 reduced the inhibitory activity towards the four MMPs by 2 to 3 orders of magnitude (Table I). FIG. 2A highlights the difference in inhibition of MMP-14(CD) by wild-type and mutated N-TIMP-3.
(§5) Ki(app) determinations for MMP-1, MMP-2 and MMP-3 were performed as set out in Example 1.

[2] = target: T2, full-length collagenase 1 (MMP-1) (Homo sapiens, UniProt P03956); assay: Enzyme inhibition kinetic study, MMP-1; type: biochemical
T2 construct: full-length collagenase 1 (MMP-1)
T2 sequence (P03956 100-469): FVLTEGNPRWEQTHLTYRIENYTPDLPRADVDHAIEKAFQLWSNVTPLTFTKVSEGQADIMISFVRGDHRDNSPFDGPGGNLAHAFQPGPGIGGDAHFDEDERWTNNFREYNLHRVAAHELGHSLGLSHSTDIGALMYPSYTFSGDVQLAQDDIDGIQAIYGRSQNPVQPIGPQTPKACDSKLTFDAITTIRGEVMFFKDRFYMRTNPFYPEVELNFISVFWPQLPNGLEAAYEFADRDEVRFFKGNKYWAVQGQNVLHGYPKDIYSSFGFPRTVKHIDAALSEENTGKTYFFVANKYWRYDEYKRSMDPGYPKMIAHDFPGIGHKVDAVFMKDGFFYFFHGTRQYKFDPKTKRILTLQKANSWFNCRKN
Protocol: as §1, §2, §3, §4, §5

[3] = Table 3, read-out: Ki(app) MMP-3
[4] = Table 3, read-out: Ki(app) MMP-1
[5] = higher pH and low ionic strength (TACE conditions), read-out: Ki MMP-1 under the conditions used for TACE activity measurements

Ki [1, 3]: 1.8 ± 0.4 nM
Ki [2, 4]: 8.2 ± 2 nM
Ki [2, 5]: 1.6 nM
B1: N-TIMP-3: N-terminal inhibitory domain of TIMP-3 (residues 1 to 121), C-terminally His-tagged, wild-type (protein)
chain: CTCSPSHPQDAFCNSDIVIRAKVVGKKLVKEGPFGTLVYTIKQMKMYRGFTKMPHVQYIHTEASESLCGLKLEVNKYQYLLTGRVYDGKMYTGLCNFVERWDQLTLSQRKGLNYRYHLGCN

Ki [1, 3]: > 1000 nM
Ki ([1]; Table I, enzyme 1 nM, pH 7.5, read-out: Ki(app) MMP-3(ΔC)): ~3300 nM
Ki [2, 4]: > 500 nM
Ki ([2]; Table I, enzyme 5 nM, pH 7.5, read-out: Ki(app) MMP-1): ~1300 nM
Ki [2, 5]: 412 nM
B2: -1A: N-TIMP-3 mutant with the addition of an N-terminal alanine extension (-1A) (protein)
chain: ACTCSPSHPQDAFCNSDIVIRAKVVGKKLVKEGPFGTLVYTIKQMKMYRGFTKMPHVQYIHTEASESLCGLKLEVNKYQYLLTGRVYDGKMYTGLCNFVERWDQLTLSQRKGLNYRYHLGCN

Inhibition of MMP-3 ([1]; 100 nM): no inhibition
Inhibition of MMP-1 ([2]; 100 nM): no inhibition
B3: (-2A)N-TIMP-3: N-TIMP-3 mutant with two alanine residues on the N-terminal side of Cysteine1 of the TIMP-3 sequence (protein)
chain: AACTCSPSHPQDAFCNSDIVIRAKVVGKKLVKEGPFGTLVYTIKQMKMYRGFTKMPHVQYIHTEASESLCGLKLEVNKYQYLLTGRVYDGKMYTGLCNFVERWDQLTLSQRKGLNYRYHLGCN
